Measurements as given in PMC5137450.

Experiments:
Experiment in all cases: filter binding
[1] = biological target: T1, MBNL3 (human, UniProt Q9NUK0 1-257)
T1 sequence: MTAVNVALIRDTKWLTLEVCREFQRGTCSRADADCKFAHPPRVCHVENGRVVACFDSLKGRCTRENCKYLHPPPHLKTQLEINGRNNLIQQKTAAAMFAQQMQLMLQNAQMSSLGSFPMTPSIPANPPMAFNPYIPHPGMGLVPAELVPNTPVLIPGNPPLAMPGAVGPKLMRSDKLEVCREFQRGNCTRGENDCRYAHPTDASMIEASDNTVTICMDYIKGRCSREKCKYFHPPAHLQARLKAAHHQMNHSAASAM

[2] = biological target: T2, MBNL1 (UniProt Q9NR56 1-260)
T2 sequence: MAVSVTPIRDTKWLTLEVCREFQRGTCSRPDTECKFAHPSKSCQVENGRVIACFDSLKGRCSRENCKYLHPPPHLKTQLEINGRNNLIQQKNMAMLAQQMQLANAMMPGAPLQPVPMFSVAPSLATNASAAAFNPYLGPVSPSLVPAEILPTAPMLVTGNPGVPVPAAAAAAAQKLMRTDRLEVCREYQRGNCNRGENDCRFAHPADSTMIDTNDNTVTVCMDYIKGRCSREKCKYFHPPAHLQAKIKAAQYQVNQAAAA

[3] = biological target: T3, MBNL2 (human, UniProt Q5VZF2 1-268)
T3 sequence: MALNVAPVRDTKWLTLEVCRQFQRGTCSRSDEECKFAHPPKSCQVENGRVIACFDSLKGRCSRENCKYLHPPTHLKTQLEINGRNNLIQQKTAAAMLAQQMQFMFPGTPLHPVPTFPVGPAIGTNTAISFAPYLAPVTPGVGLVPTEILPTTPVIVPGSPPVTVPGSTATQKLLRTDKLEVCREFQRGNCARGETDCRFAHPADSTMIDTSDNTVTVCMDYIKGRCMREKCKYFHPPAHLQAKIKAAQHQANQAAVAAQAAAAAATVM

[4] = biological target: T1, MBNL3; remark: listed apart in the source
[5] = biological target: T2, MBNL1; remark: listed apart in the source
[6] = biological target: T3, MBNL2; remark: listed apart in the source

B1: Atp2a1 intron 22 RNA (145 nt) (structured_RNA)
RNA: GGGCACCCCUGCGGUCACUUGCGCGCGCUCGCAGCUCUCCCUGGAGCCACUGCUGCUGUUGCCACUGCCCGCUUCCACAUGAGGGCCAUGCCGUUACUGUGGGCACUGGCAGCUGUGAGGCUGUGUCCUGGCCGUCCAGUCUGCU
B1: binds [1]; binds [2]; binds [3].

B2: (CUG)20 (structured_RNA)
RNA: CUGCUGCUGCUGCUGCUGCUGCUGCUGCUGCUGCUGCUGCUGCUGCUGCUGCUGCUGCUG
With B2 the Kd [4] was ~7.75 nM, the Kd [5] was ~7.75 nM and the Kd [6] was ~7.75 nM.
